Experimental data: US20180118786A1 (ECOLE POLYTECHNIQUE FEDERALE DE LAUSANNE EPFL, published 2018)
Starred links: 1 amine or outer side, 2 acyl side, 3 side chain; linkers in the order of their positions; H or OH if unused. Positions of bridges follow the written chain, without caps; N, C: chain ends. Non-standard residues stand in square brackets, D forms with d. No end group written: not given here. TATA = O=C(CC[*:1])N1CN(C(=O)CC[*:2])CN(C(=O)CC[*:3])C1; Phe(4-F) = N[C@@H](Cc1ccc(F)cc1)C(=O)O; β3hR = N=C(N)NCCC[C@H](N)CC(=O)O

Experiments:
[1] = target: T1, human β-FXIIa (HFXIIAB; Molecular Innovations) (human, UniProt P00748 354-362; P00748 373-615, limits assumed); test: protease inhibition assay
T1 construct: domain: catalytic domain; Bought; also called human b-FXIIa; human FXIIa

[2] = target: T1, human β-FXIIa (HFXIIAB; Molecular …); test: protease inhibition assay (FIG. 6)
[3] = target: T1, human β-FXIIa (HFXIIAB; Molecular …); test: protease inhibition assay; remark: listed apart in the source
[4] = target: T1, human β-FXIIa (HFXIIAB; Molecular …); test: protease inhibition assay; remark: listed apart in the source
factor XIa = target: T2, factor XIa (human, UniProt P03951 19-625); test: protease inhibition assay
T2 construct: also called FXIa

plasmin = plasmin (human, UniProt P00747 97-810, limits assumed); test: protease inhibition assay
trypsin = trypsin (human, UniProt P07477 24-247); test: protease inhibition assay
plasma kallikrein = target: T3, plasma kallikrein (human, UniProt P03952 20-638); test: protease inhibition assay, specificity testing
T3 construct: also called PK

mouse FXIIa [5] = target: T4, mouse FXIIa (mouse, UniProt Q80YC5 20-597, limits assumed); test: protease inhibition assay, fluorogenic substrate
T4 construct: also called mouse α-FXIIa (MFXIIA; Molecular Innovations)
T4 sequence (looked up): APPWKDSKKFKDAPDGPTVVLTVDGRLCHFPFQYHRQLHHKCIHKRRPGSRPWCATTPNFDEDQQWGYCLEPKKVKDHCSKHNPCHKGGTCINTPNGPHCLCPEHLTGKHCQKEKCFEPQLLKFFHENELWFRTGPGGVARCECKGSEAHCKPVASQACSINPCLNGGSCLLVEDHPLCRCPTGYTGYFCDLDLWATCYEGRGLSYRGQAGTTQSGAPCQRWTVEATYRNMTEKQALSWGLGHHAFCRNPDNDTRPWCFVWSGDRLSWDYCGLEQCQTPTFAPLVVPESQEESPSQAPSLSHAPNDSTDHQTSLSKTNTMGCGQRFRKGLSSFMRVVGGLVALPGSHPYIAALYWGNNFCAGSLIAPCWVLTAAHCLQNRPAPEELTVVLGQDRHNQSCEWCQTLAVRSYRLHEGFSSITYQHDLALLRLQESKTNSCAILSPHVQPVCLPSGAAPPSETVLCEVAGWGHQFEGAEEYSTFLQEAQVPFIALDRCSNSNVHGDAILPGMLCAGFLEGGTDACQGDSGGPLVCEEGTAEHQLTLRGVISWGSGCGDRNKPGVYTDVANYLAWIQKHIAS

[6] = target: T1, human β-FXIIa (HFXIIAB; Molecular …); test: protease inhibition assay; remark: listed apart in the source
mouse FXIIa [7] = target: T4, mouse FXIIa; test: protease inhibition assay

T1 sequence (P00748 373-615 limits assumed, one chain of several): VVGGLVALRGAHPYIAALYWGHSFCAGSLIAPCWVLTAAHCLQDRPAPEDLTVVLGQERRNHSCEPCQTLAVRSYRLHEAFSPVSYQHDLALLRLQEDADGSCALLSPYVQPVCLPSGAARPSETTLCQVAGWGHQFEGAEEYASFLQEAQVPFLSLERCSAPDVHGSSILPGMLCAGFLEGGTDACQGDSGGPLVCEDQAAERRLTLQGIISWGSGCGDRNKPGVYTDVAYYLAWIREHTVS
T3 sequence (P03952 20-638 limits assumed): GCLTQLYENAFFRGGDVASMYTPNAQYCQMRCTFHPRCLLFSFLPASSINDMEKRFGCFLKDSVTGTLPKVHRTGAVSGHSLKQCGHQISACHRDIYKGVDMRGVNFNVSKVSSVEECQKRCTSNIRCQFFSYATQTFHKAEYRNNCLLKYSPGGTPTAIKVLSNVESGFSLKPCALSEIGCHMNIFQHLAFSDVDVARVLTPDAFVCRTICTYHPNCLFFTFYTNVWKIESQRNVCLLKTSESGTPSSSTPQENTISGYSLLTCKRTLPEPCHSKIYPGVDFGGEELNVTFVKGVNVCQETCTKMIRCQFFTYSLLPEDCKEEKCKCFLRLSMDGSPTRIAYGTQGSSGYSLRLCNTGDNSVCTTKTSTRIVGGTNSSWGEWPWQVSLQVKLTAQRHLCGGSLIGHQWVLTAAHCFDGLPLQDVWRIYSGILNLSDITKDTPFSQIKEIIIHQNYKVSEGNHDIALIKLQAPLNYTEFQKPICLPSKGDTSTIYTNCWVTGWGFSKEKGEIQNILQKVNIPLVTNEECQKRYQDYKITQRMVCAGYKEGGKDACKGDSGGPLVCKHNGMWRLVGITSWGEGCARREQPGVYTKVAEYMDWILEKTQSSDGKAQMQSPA
plasmin, sequence (P00747 97-810 limits assumed): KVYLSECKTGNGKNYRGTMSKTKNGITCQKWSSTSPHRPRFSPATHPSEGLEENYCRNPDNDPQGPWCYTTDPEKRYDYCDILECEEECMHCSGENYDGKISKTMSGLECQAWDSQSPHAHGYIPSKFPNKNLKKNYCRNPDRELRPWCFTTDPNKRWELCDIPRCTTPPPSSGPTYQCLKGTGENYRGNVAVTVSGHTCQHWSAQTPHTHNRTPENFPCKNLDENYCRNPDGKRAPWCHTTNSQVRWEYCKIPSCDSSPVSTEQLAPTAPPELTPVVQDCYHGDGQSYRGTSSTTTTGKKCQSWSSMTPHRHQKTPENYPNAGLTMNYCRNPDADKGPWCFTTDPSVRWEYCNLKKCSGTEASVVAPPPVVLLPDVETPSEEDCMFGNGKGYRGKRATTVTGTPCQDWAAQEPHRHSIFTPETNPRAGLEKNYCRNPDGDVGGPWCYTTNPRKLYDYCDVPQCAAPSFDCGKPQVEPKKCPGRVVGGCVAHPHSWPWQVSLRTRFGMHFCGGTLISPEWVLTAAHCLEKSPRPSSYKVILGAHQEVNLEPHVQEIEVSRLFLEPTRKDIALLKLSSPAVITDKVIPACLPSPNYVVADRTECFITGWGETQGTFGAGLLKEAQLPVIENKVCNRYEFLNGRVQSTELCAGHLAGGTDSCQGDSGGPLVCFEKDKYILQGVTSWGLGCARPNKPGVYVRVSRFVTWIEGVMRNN

B1: JS35 (rsCF^4…^bCR) (peptide)
peptide: H-[dR][dS]C[Phe(4-F)]RLPCRQL[β3hR]CR-NH2
modifications: linker 3-8-13 via TATA
SMILES: CC(C)C[C@@H]1NC(=O)[C@H](CCC(N)=O)NC(=O)[C@H](CCCNC(=N)N)NC(=O)[C@@H]2CSCCC(=O)N3CN(CN(C3)C(=O)CCSC[C@H](NC(=O)[C@@H](CO)NC(=O)[C@H](N)CCCNC(=N)N)C(=O)N[C@@H](Cc3ccc(F)cc3)C(=O)N[C@@H](CCCNC(=N)N)C(=O)N[C@@H](CC(C)C)C(=O)N3CCC[C@H]3C(=O)N2)C(=O)CCSC[C@@H](C(=O)N[C@@H](CCCNC(=N)N)C(N)=O)NC(=O)C[C@H](CCCNC(=N)N)NC1=O
Ki [1]: 0.32 nM

B2: FXII618 variant with P in position six replaced by S (peptide)
peptide: RCFRLSCRQLRCRW-NH2
modifications: linker 2-7-12 via TATA; N-terminus assumed
SMILES: CC(C)C[C@@H]1NC(=O)[C@H](CCC(N)=O)NC(=O)[C@H](CCCNC(=N)N)NC(=O)[C@@H]2CSCCC(=O)N3CN(CN(C3)C(=O)CCSC[C@H](NC(=O)[C@@H](N)CCCNC(=N)N)C(=O)N[C@@H](Cc3ccccc3)C(=O)N[C@@H](CCCNC(=N)N)C(=O)N[C@@H](CC(C)C)C(=O)N[C@@H](CO)C(=O)N2)C(=O)CCSC[C@@H](C(=O)N[C@@H](CCCNC(=N)N)C(=O)N[C@@H](Cc2c[nH]c3ccccc23)C(N)=O)NC(=O)[C@H](CCCNC(=N)N)NC1=O
Ki [2]: < 100 nM

B3: peptide 18 (peptide 2, Pro6 to leucine) (peptide)
peptide: RCFRLLCRQLRCRW-NH2
modifications: linker 2-7-12 via TATA; N-terminus assumed
SMILES: CC(C)C[C@@H]1NC(=O)[C@H](CCC(N)=O)NC(=O)[C@H](CCCNC(=N)N)NC(=O)[C@@H]2CSCCC(=O)N3CN(CN(C3)C(=O)CCSC[C@H](NC(=O)[C@@H](N)CCCNC(=N)N)C(=O)N[C@@H](Cc3ccccc3)C(=O)N[C@@H](CCCNC(=N)N)C(=O)N[C@@H](CC(C)C)C(=O)N[C@@H](CC(C)C)C(=O)N2)C(=O)CCSC[C@@H](C(=O)N[C@@H](CCCNC(=N)N)C(=O)N[C@@H](Cc2c[nH]c3ccccc23)C(N)=O)NC(=O)[C@H](CCCNC(=N)N)NC1=O
Ki [2]: < 100 nM
fold reduction of activity vs peptide 2 [3]: < 2 fold

B4: peptide 15 (peptide 2, Pro6 to alanine) (peptide)
peptide: RCFRLACRQLRCRW-NH2
modifications: linker 2-7-12 via TATA; N-terminus assumed
SMILES: CC(C)C[C@@H]1NC(=O)[C@H](CCCNC(=N)N)NC(=O)[C@H](Cc2ccccc2)NC(=O)[C@@H](NC(=O)[C@@H](N)CCCNC(=N)N)CSCCC(=O)N2CN3CN(C2)C(=O)CCSC[C@@H](C(=O)N[C@@H](CCCNC(=N)N)C(=O)N[C@@H](Cc2c[nH]c4ccccc24)C(N)=O)NC(=O)[C@H](CCCNC(=N)N)NC(=O)[C@H](CC(C)C)NC(=O)[C@H](CCC(N)=O)NC(=O)[C@H](CCCNC(=N)N)NC(=O)[C@H](CSCCC3=O)NC(=O)[C@H](C)NC1=O
Ki [2]: < 100 nM
fold reduction of activity vs peptide 2 [3]: < 2 fold

B5: JS7m (FXII618, Arg1 to D-Arg-D-Ser) (peptide)
peptide: H-[dR][dS]CFRLPCRQLRCR-NH2
modifications: linker 3-8-13 via TATA
SMILES: CC(C)C[C@@H]1NC(=O)[C@H](CCC(N)=O)NC(=O)[C@H](CCCNC(=N)N)NC(=O)[C@@H]2CSCCC(=O)N3CN(CN(C3)C(=O)CCSC[C@H](NC(=O)[C@@H](CO)NC(=O)[C@H](N)CCCNC(=N)N)C(=O)N[C@@H](Cc3ccccc3)C(=O)N[C@@H](CCCNC(=N)N)C(=O)N[C@@H](CC(C)C)C(=O)N3CCC[C@H]3C(=O)N2)C(=O)CCSC[C@@H](C(=O)N[C@@H](CCCNC(=N)N)C(N)=O)NC(=O)[C@H](CCCNC(=N)N)NC1=O
notes: also called Arg1→D-Arg-D-Ser (rs)
Ki [4]: 18 nM

H-[dR][dS]CFRLPCHQL[β3hR]CR-NH2 (linker 3-8-13 via TATA) [JS36 (rs…^bCR)]
Ki [1]: 1 nM

B6: JS34 (rsCF^4…) (peptide)
peptide: H-[dR][dS]C[Phe(4-F)]RLPCHQLRCR-NH2
modifications: linker 3-8-13 via TATA
SMILES: CC(C)C[C@@H]1NC(=O)[C@H](CCC(N)=O)NC(=O)[C@H](Cc2c[nH]cn2)NC(=O)[C@@H]2CSCCC(=O)N3CN(CN(C3)C(=O)CCSC[C@H](NC(=O)[C@@H](CO)NC(=O)[C@H](N)CCCNC(=N)N)C(=O)N[C@@H](Cc3ccc(F)cc3)C(=O)N[C@@H](CCCNC(=N)N)C(=O)N[C@@H](CC(C)C)C(=O)N3CCC[C@H]3C(=O)N2)C(=O)CCSC[C@@H](C(=O)N[C@@H](CCCNC(=N)N)C(N)=O)NC(=O)[C@H](CCCNC(=N)N)NC1=O
Ki [1]: 0.64 nM

B7: corn trypsin inhibitor (other, UniProt P01088 29-155, looked up)
chain: SAGTSCVPGWAIPHNPLPSCRWYVTSRTCGIGPRLPWPELKRRCCRELADIPAYCRCTALSILMDGAIPPGPDAQLEGRLEDLPGCPREVQRGFAATLVTEAECNLATISGVAECPWILGGGTMPSK
notes: also called CTI
Ki (factor XIa): 12500 nM
Ki (plasmin): 5000 nM
Ki (trypsin): 7 nM

B8: FXII618 (peptide)
peptide: H-RCFRLPCRQLRCR-NH2
modifications: linker 2-7-12 via TATA
notes: Bicyclic; free N-terminus; also called peptide 1; bicyclic peptide 1
binding result (plasma kallikrein): binds
Ki (mouse FXIIa [5]): 252 nM
Ki (trypsin): 5000 nM

B9: JS17m (FXII618, Arg8 to His) (peptide)
peptide: H-RCFRLPCHQLRCR-NH2
modifications: linker 2-7-12 via TATA
SMILES: CC(C)C[C@@H]1NC(=O)[C@H](CCC(N)=O)NC(=O)[C@H](Cc2c[nH]cn2)NC(=O)[C@@H]2CSCCC(=O)N3CN(CN(C3)C(=O)CCSC[C@H](NC(=O)[C@@H](N)CCCNC(=N)N)C(=O)N[C@@H](Cc3ccccc3)C(=O)N[C@@H](CCCNC(=N)N)C(=O)N[C@@H](CC(C)C)C(=O)N3CCC[C@H]3C(=O)N2)C(=O)CCSC[C@@H](C(=O)N[C@@H](CCCNC(=N)N)C(N)=O)NC(=O)[C@H](CCCNC(=N)N)NC1=O
notes: also called Arg8→His (H)
Ki [6]: 21.6 nM
Ki (mouse FXIIa [7]): 80 nM

B10: JS33-R (rsCF^4…^bC) (peptide)
peptide: H-[dR][dS]C[Phe(4-F)]RLPCHQL[β3hR]C-NH2
modifications: linker 3-8-13 via TATA
SMILES: CC(C)C[C@@H]1NC(=O)[C@H](CCC(N)=O)NC(=O)[C@H](Cc2c[nH]cn2)NC(=O)[C@@H]2CSCCC(=O)N3CN(CN(C3)C(=O)CCSC[C@H](NC(=O)[C@@H](CO)NC(=O)[C@H](N)CCCNC(=N)N)C(=O)N[C@@H](Cc3ccc(F)cc3)C(=O)N[C@@H](CCCNC(=N)N)C(=O)N[C@@H](CC(C)C)C(=O)N3CCC[C@H]3C(=O)N2)C(=O)CCSC[C@@H](C(N)=O)NC(=O)C[C@H](CCCNC(=N)N)NC1=O
Ki [1]: 0.4 nM
